# Measured values from article PMC9041834, “Ubiquitin ligase activity inhibits Cdk5 to control axon termination” (PLoS Genetics, 2022).
# Target: T1, GFP::FSN-1 CRISPR (endogenous FSN-1 N-terminally fused with GFP) (C. elegans, UniProt Q18223 1-332)
# T1 construct: FSN-1, F-box protein of C. elegans (orthologue of human FBXO45), expressed from the endogenous locus; also called bgg47; source: C. elegans, endogenous locus tagged by CRISPR/Cas9, in whole animal lysate; not shown: GFP, N-terminal, kept
# T1 sequence (looked up): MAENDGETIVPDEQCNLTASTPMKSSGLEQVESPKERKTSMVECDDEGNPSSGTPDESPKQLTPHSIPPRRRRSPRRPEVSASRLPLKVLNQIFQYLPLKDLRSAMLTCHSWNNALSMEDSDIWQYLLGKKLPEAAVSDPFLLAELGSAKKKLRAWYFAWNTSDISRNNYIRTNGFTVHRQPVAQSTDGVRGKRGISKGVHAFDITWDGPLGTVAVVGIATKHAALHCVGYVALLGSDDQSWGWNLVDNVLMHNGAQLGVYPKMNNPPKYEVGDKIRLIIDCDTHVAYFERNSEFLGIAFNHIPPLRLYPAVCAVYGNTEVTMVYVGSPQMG
# Assay: co-IP; CRISPR-tagged endogenous proteins in whole animal lysates of C. elegans (wild-type background, and rpm-1 LD CRISPR background for the FSN-1 pair); 50 mM Tris HCl pH 7.5, 150 mM NaCl, 1.5 mM MgCl2, 10% glycerol, 0.1% NP-40, 1 mM DTT; anti-FLAG or anti-GFP, protein-G agarose 4 h at 4°C; immunoblot
# Settings: partners not purified
binder,measurement,value
"CDK-5::3xFLAG CRISPR (endogenous CDK-5 C-terminally tagged with 3xFLAG) (enzyme, CDK-5, serine/threonine kinase of C. elegans (Cdk5 orthologue), expressed from the endogenous locus; also called CDK-5::FLAG; CDK-5::FLAG CRISPR; source: C. elegans, endogenous locus tagged by CRISPR/Cas9, in whole animal lysate; not shown: 3xFLAG, C-terminal, kept) not shown","fold change of co-precipitated CDK-5::FLAG, rpm-1 LD CRISPR background against wild-type background",~6 fold
